From patent publication US20130177579A1 (BIOALLIANCE C V, published 2013)
Each block holds one binder with its values, some of them ahead of it.

What was measured:
[1] = target: T1, human transferrin receptor expressed by normal human cells (RBC, PMN, lymphocytes, monocytes, platelets, … (human, UniProt P02786 1-760)); experiment: FACS, monocytes, donor D005, 1/10x
T1 construct: The assay is whole-cell FACS on normal donor cells; also called TfR on normal cells
Protocol: (§1) Preparation of PBMC and PMN: The whole blood was diluted with an equal volume of PBS and mixed with 1/10 volume of 15% Dextran solution. […] After centrifugation at 2200 rpm for 15 min (rotor: SORVALL, PN11788 and centrifuge: SORVALL, RT7), PBMC concentrated in the interface, were collected and washed with large volumes of FACS buffer (2% FBS in PBS) for future use. The PMN-rich pellet was collected, from which residual RBC was removed by hypotonic lysis in 0.2% NaCl.
(§2) 1×10⁵ cells were seeded in each well of a v-bottomed 96-well plate and incubated with 50 μl of hybridoma culture supernatant at 1× and 10× dilution, or isotype control antibody mouse IgM, κ (BD™, Cat. No. 557275) at concentration of 1 μg/ml. A 300× dilution of human cell hyper-immune serum was used as binding positive control for all cell types. PE-conjugated anti-human CD41a (Southern Biotech™, Cat. No. 9391-09) was used as a positive control for staining human platelets. Anti-sialyl Lewis x antibody (Millipore™, Cat. No. MAB2096) was used as a positive control for staining human PMN. Anti-human CD31 (Hycult™, Cat. No. HM2039) was used as a positive control for staining HUVEC. After 30 minutes incubation at 4° C., cells were washed twice with 200 μl FACS buffer (1×PBS containing 1% FBS), stained with 50 μl of 1 μg/ml goat F(ab′)2-anti-mouse IgG(H+L)-PE (Southern Biotech™, Cat. No. 1032-09) or 1 μg/ml goat F(ab′)2-anti-mouse IgM(H+L)-PE (Southern Biotech™, Cat. No. 1022-09) in FACS buffer. After 30 minutes of incubation at 4° C., cells were washed twice with FACS buffer and analyzed by flow cytometry (BD LSR, BD Life Sciences).

[2] = target: T1, human transferrin receptor expressed by …; experiment: FACS, PMN, donor D102, 1/10x
Protocol: as §1, §2

[3] = target: human transferrin receptor expressed by nonhematopoietic cancer cells (human) (UniProt P02786); experiment: FACS, H358 cells, 1X
Chain of human transferrin receptor expressed by nonhematopoietic cancer cells (human) (P02786 whole entry G142S): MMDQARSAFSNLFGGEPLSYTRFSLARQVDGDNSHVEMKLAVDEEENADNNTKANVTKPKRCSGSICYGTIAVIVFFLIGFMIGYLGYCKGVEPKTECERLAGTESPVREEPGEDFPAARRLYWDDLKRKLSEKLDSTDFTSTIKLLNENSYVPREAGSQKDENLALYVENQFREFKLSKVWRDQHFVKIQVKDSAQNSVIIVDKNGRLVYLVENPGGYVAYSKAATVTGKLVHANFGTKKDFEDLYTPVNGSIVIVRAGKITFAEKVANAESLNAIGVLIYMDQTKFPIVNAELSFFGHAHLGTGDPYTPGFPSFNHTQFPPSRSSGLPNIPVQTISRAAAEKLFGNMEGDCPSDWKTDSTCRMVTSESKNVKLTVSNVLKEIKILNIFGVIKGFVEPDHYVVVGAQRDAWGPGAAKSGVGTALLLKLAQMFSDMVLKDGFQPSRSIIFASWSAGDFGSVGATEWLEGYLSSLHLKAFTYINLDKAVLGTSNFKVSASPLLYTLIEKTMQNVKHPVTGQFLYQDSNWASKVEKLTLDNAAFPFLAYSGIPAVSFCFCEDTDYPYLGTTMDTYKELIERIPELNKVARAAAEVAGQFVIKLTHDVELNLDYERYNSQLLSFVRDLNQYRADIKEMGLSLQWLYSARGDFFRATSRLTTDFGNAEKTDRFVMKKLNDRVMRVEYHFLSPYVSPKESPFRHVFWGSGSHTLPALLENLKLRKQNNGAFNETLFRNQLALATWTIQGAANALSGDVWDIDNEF

[4] = target: T1, human transferrin receptor expressed by …; experiment: FACS, platelets, donor D014, 1x
Protocol: (§3) The hyper-immuned serum (Hyp-serum) or the corresponding cell marker antibodies for certain cell types were included as positive controls.
as §2

[5] = target: T1, human transferrin receptor expressed by …; experiment: FACS, RBC, donor D014, 1x
Protocol: as §3, §2

[6] = target: T1, human transferrin receptor expressed by …; experiment: FACS, RBC, donor D005, 1/10x
Protocol: as §3, §2

[7] = target: T1, human transferrin receptor expressed by …; experiment: FACS, lymphocytes, donor D102, 1x
Protocol: as §1, §2

[8] = target: T1, human transferrin receptor expressed by …; experiment: FACS, platelets, donor D016, 1x
Protocol: as §3, §2

[9] = target: T1, human transferrin receptor expressed by …; experiment: FACS, PMN, donor D005, 1x
Protocol: as §3, §2

[10] = target: T1, human transferrin receptor expressed by …; experiment: FACS, lymphocytes, donor D005, 1x
Protocol: as §3, §2

[11] = target: T1, human transferrin receptor expressed by …; experiment: FACS, lymphocytes, donor D016, 1/10x
Protocol: as §3, §2

[12] = target: T1, human transferrin receptor expressed by …; experiment: FACS, platelets, donor D005, 1x
Protocol: as §3, §2

[13] = target: human transferrin receptor expressed by nonhematopoietic cancer cells (human) (UniProt P02786); experiment: FACS, SU.86.86 cells, 1/5X
[14] = target: T1, human transferrin receptor expressed by …; experiment: FACS, RBC, donor D102, 1/10x
Protocol: as §3, §2

[15] = target: T1, human transferrin receptor expressed by …; experiment: FACS, monocytes, donor D016, 1x
Protocol: as §3, §2

[16] = target: T1, human transferrin receptor expressed by …; experiment: FACS, RBC, donor D016, 1/10x
Protocol: as §3, §2

[17] = target: T2, human transferrin receptor expressed by Jurkat cells (human, UniProt P02786 1-760); experiment: FACS, Jurkat cells, 1X
T2 construct: Endogenous receptor on Jurkat cells; MEM189 was the positive control; also called TfR on T leukemia cell line Jurkat
T2 sequence (P02786 whole entry G142S): as above

[18] = target: human transferrin receptor expressed by nonhematopoietic cancer cells (human) (UniProt P02786); experiment: cell-based or functional assay
[19] = target: T1, human transferrin receptor expressed by …; experiment: FACS, lymphocytes, donor D016, 1x
Protocol: as §3, §2

T1 sequence (P02786 whole entry G142S): as above

% positive cell binding [1]: 4%
% positive cell binding [2]: 1%
MFI [3]: 823 MFI
% positive cell binding [4]: < 1%
% positive cell binding [5]: 1%
% positive cell binding [6]: < 1%
% positive cell binding [7]: < 1%
% positive cell binding [8]: < 1%
% positive cell binding [9]: 1%
% positive cell binding [10]: < 1%
% positive cell binding [11]: 1%
% positive cell binding [12]: < 1%
MFI [13]: 2940 MFI
% positive cell binding [14]: < 1%
% positive cell binding [15]: < 1%
% positive cell binding [16]: 1%
% of gated cells [17]: < 1%
percentage of Annexin V positive and/or PI positive cells; COLO205; 1/2X (IgM 19.1) [18]: 50.9%
percentage of Annexin V positive and/or PI positive cells; COLO205; 1/6X (IgM 19.1) [18]: 42.2%
percentage of Annexin V positive and/or PI positive cells; COLO205; 1/18X (IgM 19.1) [18]: 22.9%
percentage of Annexin V positive and/or PI positive cells; DLD1; 1/2X (IgM 24.3) [18]: 50.6%
percentage of Annexin V positive and/or PI positive cells; DLD1; 1/6X (IgM 24.3) [18]: 42.3%
percentage of Annexin V positive and/or PI positive cells; DLD1; 1/18X (IgM 24.3) [18]: 38.9%
percentage of Annexin V positive and/or PI positive cells; H358; 1/2X (IgM 31.8) [18]: 50.7%
percentage of Annexin V positive and/or PI positive cells; H358; 1/6X (IgM 31.8) [18]: 49%
percentage of Annexin V positive and/or PI positive cells; H358; 1/18X (IgM 31.8) [18]: 46.9%
percentage of Annexin V positive and/or PI positive cells; Panc 02.03B; 1/2X (IgM 19.0) [18]: 46.7%
percentage of Annexin V positive and/or PI positive cells; Panc 02.03B; 1/6X (IgM 19.0) [18]: 28.7%
percentage of Annexin V positive and/or PI positive cells; Panc 02.03B; 1/18X (IgM 19.0) [18]: 24.5%
percentage of Annexin V positive and/or PI positive cells; SNU-16; 1/2X (IgM 30.0) [18]: 40.2%
percentage of Annexin V positive and/or PI positive cells; SNU-16; 1/6X (IgM 30.0) [18]: 37.2%
percentage of Annexin V positive and/or PI positive cells; SNU-16; 1/18X (IgM 30.0) [18]: 34.8%
% positive cell binding [19]: 1%
B1: antibody 6-90 (antibody, mouse IgM, V domains shown)
VH: EVELQQFGIEMVKPGASVKISCKASGYIFTDYHMDWVRQSHGKSLEWIGDIDPKYDRVTYNQKFKGKASLTADKSSSTAYMELRSLTSEDTAVYYCAKTGAYGDYLAYWGQGTLVTVSA
VL: DLVMTQTPLSLPVSLGDQASISCRSSQSLVHSDGNTYFYWYLQKPGQSPKLLIYKVSNRFSGVPDRFSAGGSGTYFTLKISRVEAEDLGVYFCSQTTHFPPTFGGGTKLEIKR
notes: Mouse IgM, kappa from a hybridoma; tested as hybridoma culture supernatant

% positive cell binding [1]: 3%
% positive cell binding [2]: 1%
MFI [3]: 234 MFI
% positive cell binding [4]: < 1%
% positive cell binding [5]: 1%
% positive cell binding [6]: < 1%
% positive cell binding [7]: < 1%
% positive cell binding [8]: < 1%
% positive cell binding [9]: 1%
% positive cell binding [10]: < 1%
% positive cell binding [11]: 1%
% positive cell binding [12]: < 1%
MFI [13]: 96 MFI
% positive cell binding [14]: < 1%
% positive cell binding [15]: 1%
% positive cell binding [16]: 1%
% of gated cells [17]: 1%
percentage of Annexin V positive and/or PI positive cells; DU145; 1/2X (IgM 19.5) [18]: 31%
percentage of Annexin V positive and/or PI positive cells; DU145; 1/6X (IgM 19.5) [18]: 35.4%
percentage of Annexin V positive and/or PI positive cells; DU145; 1/18X (IgM 19.5) [18]: 23.6%
% positive cell binding [19]: 1%
B2: antibody 55-31 (antibody, mouse IgM, V domains shown)
VH: QVQLQQPGAELVKPGTSVKLSCKASGYNFTSYWINWVKLRPGQGLEWIGDIYPGSGSTNYNEKFKSKATLTVDTSSSTAYMQLSSLASEDSALYYCARSAYRYDWFAYWGQGTLVTVSA
VL: DIQMTQSPASLSVSVGETVTITCRASENIYSNLAWYQQKQGKSPQLLVYAATNLADGVPSRFSGSGSGTQYSLKINSLQSEDFGSYYCQHFWGTPYTFGGGTKLEIKR
notes: as for B1

% positive cell binding [1]: 4%
% positive cell binding [2]: 1%
MFI [3]: 942 MFI
% positive cell binding [4]: < 1%
% positive cell binding [5]: 1%
% positive cell binding [6]: < 1%
% positive cell binding [7]: < 1%
% positive cell binding [8]: < 1%
% positive cell binding [9]: < 1%
% positive cell binding [10]: < 1%
% positive cell binding [11]: 1%
% positive cell binding [12]: < 1%
MFI [13]: 4600 MFI
% positive cell binding [14]: < 1%
% positive cell binding [15]: < 1%
% positive cell binding [16]: 1%
% of gated cells [17]: 1%
percentage of Annexin V positive and/or PI positive cells; COLO205; 1/2X (IgM 19.1) [18]: 80.3%
percentage of Annexin V positive and/or PI positive cells; COLO205; 1/6X (IgM 19.1) [18]: 25.2%
percentage of Annexin V positive and/or PI positive cells; COLO205; 1/18X (IgM 19.1) [18]: 18.6%
percentage of Annexin V positive and/or PI positive cells; DLD1; 1/2X (IgM 24.3) [18]: 42.2%
percentage of Annexin V positive and/or PI positive cells; DLD1; 1/6X (IgM 24.3) [18]: 38.6%
percentage of Annexin V positive and/or PI positive cells; DLD1; 1/18X (IgM 24.3) [18]: 37.1%
percentage of Annexin V positive and/or PI positive cells; H358; 1/2X (IgM 31.8) [18]: 70.8%
percentage of Annexin V positive and/or PI positive cells; H358; 1/6X (IgM 31.8) [18]: 70.1%
percentage of Annexin V positive and/or PI positive cells; H358; 1/18X (IgM 31.8) [18]: 63.9%
percentage of Annexin V positive and/or PI positive cells; Pan 02.03B; 1/2X (IgM 16.9) [18]: 31.5%
percentage of Annexin V positive and/or PI positive cells; Pan 02.03B; 1/6X (IgM 16.9) [18]: 20.5%
percentage of Annexin V positive and/or PI positive cells; Pan 02.03B; 1/18X (IgM 16.9) [18]: 20.5%
percentage of Annexin V positive and/or PI positive cells; SNU-16; 1/2X (IgM 30.0) [18]: 46.6%
percentage of Annexin V positive and/or PI positive cells; SNU-16; 1/6X (IgM 30.0) [18]: 43.5%
percentage of Annexin V positive and/or PI positive cells; SNU-16; 1/18X (IgM 30.0) [18]: 36.6%
percentage of Annexin V positive and/or PI positive cells; SU.86.86; 1/2X (IgM 12.1) [18]: 41.3%
percentage of Annexin V positive and/or PI positive cells; SU.86.86; 1/6X (IgM 12.1) [18]: 29.3%
percentage of Annexin V positive and/or PI positive cells; SU.86.86; 1/18X (IgM 12.1) [18]: 23.4%
% positive cell binding [19]: < 1%
B3: antibody 122-72 (antibody, V domains shown)
VH: EVQLVESGGGLVQPKGSLKLSCAASGFTFNTYAMNWVRQAPGKGLEWVARIRSKSNNYATYYADSVKDRFTISRDDSQSMLYLQMNNLKTEDTAMYYCVAYGSRNYWGQGTTLTVSS
VL: DIVMTQSPSSLTVTAGEKVTMSCKSSQSLLNSGNQKNYLTWYQQKPGQPPKLLIYWASTRESGVPDRFTGSGSGTDFTLTISSVQAEDLAVYYCQNDYSYPYTFGGGTKLEIKR
notes: Mouse IgM, kappa from a hybridoma; tested as hybridoma culture supernatant; Antibody 60-43 is said to have the same CDRs
